Residue numbers refer to the chain shown, from its start.
Key:
NE2 mutant 601LH = target: T1, NE2 mutant 601LH (hepatitis E virus, UniProt P29326 394-600); experiment: Western blot of NE2 mutant proteins with monoclonal antibody 16D7
T1 construct: position counted on HEV ORF2
T1 chain: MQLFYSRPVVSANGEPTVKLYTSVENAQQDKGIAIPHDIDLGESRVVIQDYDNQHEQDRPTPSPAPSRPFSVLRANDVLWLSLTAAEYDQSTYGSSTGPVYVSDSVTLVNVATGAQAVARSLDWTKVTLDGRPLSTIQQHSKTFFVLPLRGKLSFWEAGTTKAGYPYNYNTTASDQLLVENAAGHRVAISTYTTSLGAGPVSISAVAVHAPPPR

NE2 mutant 601LK = target: T2, NE2 mutant 601LK (hepatitis E virus, UniProt P29326 394-600); experiment: as above
T2 construct: position counted on HEV ORF2
T2 chain: T1 chain with H209K

7-peptide YQDSAKT = experiment: phage display panning on coated MAb; 3 clones
polypeptide 239 = target: T3, polypeptide 239 (hepatitis E virus, UniProt P29326 368-603); experiment: Western blot
T3 sequence: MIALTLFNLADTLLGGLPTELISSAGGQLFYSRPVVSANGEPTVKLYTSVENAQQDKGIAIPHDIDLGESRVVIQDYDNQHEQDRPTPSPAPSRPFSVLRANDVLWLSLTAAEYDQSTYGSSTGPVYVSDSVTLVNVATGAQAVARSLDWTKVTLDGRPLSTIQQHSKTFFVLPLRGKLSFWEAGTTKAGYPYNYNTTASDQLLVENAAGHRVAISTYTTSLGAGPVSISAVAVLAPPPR

7-peptide QPATWNT = experiment: phage display panning on coated MAb; 1 clone
7-peptide ALWGPTS = experiment: phage display panning on coated MAb; 1 clone
7-peptide GGWGPFA = experiment: phage display panning on coated MAb; 1 clone
7-peptide MLWGPSD = experiment: phage display panning on coated MAb; 1 clone
7-peptide TNLRLDS = experiment: phage display panning on coated MAb; 1 clone
NE2 mutant 601LI = target: T4, NE2 mutant 601LI (hepatitis E virus, UniProt P29326 394-600); experiment: WB
T4 chain: T1 chain with H209I

NE2 mutant 601LQ = target: T5, NE2 mutant 601LQ (hepatitis E virus, UniProt P29326 394-600); experiment: WB
T5 construct: position counted on HEV ORF2
T5 chain: T1 chain with H209Q

NE2 mutant 601LP = target: T6, NE2 mutant 601LP (hepatitis E virus, UniProt P29326 394-600); experiment: WB
T6 construct: position counted on HEV ORF2
T6 chain: T1 chain with H209P

NE2 mutant 601LG = target: T7, NE2 mutant 601LG (hepatitis E virus, UniProt P29326 394-600); experiment: WB
T7 construct: position counted on HEV ORF2
T7 chain: T1 chain with H209G

NE2 mutant 601LE = target: T8, NE2 mutant 601LE (hepatitis E virus, UniProt P29326 394-600); experiment: WB
T8 construct: position counted on HEV ORF2
T8 chain: T1 chain with H209E

NE2 mutant 601LC = target: T9, NE2 mutant 601LC (hepatitis E virus, UniProt P29326 394-600); experiment: WB
T9 construct: position counted on HEV ORF2
T9 chain: T1 chain with H209C

Measured: binding result

B1: monoclonal antibody 16D7 (antibody, V domains shown)
VH: EVQLQQSGPELVKPGASVKMSCKASGYKFTSYVMHWVKQKPGQGLEWIGYINPSNDNIKYNEKFKGKAILTLDKSSSTAYMAFSSLTSEDSAVYYCATLTGVDYWGQGTTLTVSS
VL: DVVMTQTPLSLSVTIGQPASISCKSSQSLLYRNGKIYLNWLQQRPGQAPKHLMSQVSKLDPGIPDRFSGSGSETDFTLKISRVEAEDLGVYYCLQGTHYPYTFGGGTKLEIKR
notes: also called MAb 16D7; HRP-16D7
binds: all assays above

Source: patent publication US20060233822A1 (YANG SHENG TANG, published 2006)
